From patent US20250171562A1

These binders were tested against mixture of three Der p 2 specific recombinant human IgE clones H10, H12, P4E (human) (UniProt P01854) (assay: RBL-SX38 IgE displacement, FACS).
Sequence of mixture of three Der p 2 specific recombinant human IgE clones H10, H12, P4E (human) (P01854 other isoform, or with tags, fused parts or gaps): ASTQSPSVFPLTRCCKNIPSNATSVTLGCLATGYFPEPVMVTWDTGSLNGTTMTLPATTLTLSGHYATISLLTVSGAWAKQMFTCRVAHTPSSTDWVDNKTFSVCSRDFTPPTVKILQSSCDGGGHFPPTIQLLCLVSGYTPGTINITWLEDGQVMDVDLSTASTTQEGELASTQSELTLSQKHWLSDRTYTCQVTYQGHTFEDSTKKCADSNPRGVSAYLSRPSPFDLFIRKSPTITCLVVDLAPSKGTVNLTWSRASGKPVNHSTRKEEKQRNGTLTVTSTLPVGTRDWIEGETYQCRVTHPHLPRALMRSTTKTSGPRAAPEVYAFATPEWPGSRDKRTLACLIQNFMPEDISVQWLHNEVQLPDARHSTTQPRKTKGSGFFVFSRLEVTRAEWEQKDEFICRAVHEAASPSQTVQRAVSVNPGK

Row | Binder | Max effect/effect 1 µM [%] | EC50 [µM]
1 | CIgG4D2A1(RS) (Fc fusion) chain 1: GPPCPPCPAPEFLGGPSVFLFPPKPKDTLMISRTPEVTCVVVDVSQEDPEVQFNWYVDGVEVHNAKTKPREEQFNSTYRVVSVLTVLHQDWLNGKEYKCKVSNKGLPSSIEKTISKAKGQPREPQVYTLPPCQEEMTKNQVSLWCLVKGFYPSDIAVEWESNGQPENNYKTTPPVLDSDGSFFLYSRLTVDKSRWQEGNVFSCSVMHEALHNHYTQKSLSLSLGKRSDVQLQESGGGLVEAGGSLRLSCVASGRTFSGWSMGWFRQAPGKEREFVAAISWVGSWIGGTVYSNSVKGRFTISRDNARTTVYLQMNSLKPEDTAVYFCAAANSETPRIFASEYDYWGQGTQVTVS chain 2: GPPCPPCPAPEFLGGPSVFLFPPKPKDTLMISRTPEVTCVVVDVSQEDPEVQFNWYVDGVEVHNAKTKPREEQFNSTYRVVSVLTVLHQDWLNGKEYKCKVSNKGLPSSIEKTISKAKGQPREPQVCTLPPSQEEMTKNQVSLSCAVKGFYPSDIAVEWESNGQPENNYKTTPPVLDSDGSFFLVSRLTVDKSRWQEGNVFSCSVMHEALHNHYTQKSLSLSLGKRSEVQLLESGGGLVQPGGSLRLSCAASGFTFGNYDMAWVRQAPGKRPEWVSSIDTGGDITHYADSVKGRFTISRDNAKNTLYLQMNSLRPEDTAVYWCATDEEYALGPNEFDYYGQGTLVTVSS | 6 | –
2 | NIgG4D2A1(G4S)1 (Fc fusion) chain 1: DVQLQESGGGLVEAGGSLRLSCVASGRTFSGWSMGWFRQAPGKEREFVAAISWVGSWIGGTVYSNSVKGRFTISRDNARTTVYLQMNSLKPEDTAVYFCAAANSETPRIFASEYDYWGQGTQVTVSGGGGSGPPCPPCPAPEFLGGPSVFLFPPKPKDTLMISRTPEVTCVVVDVSQEDPEVQFNWYVDGVEVHNAKTKPREEQFNSTYRVVSVLTVLHQDWLNGKEYKCKVSNKGLPSSIEKTISKAKGQPREPQVYTLPPCQEEMTKNQVSLWCLVKGFYPSDIAVEWESNGQPENNYKTTPPVLDSDGSFFLYSRLTVDKSRWQEGNVFSCSVMHEALHNHYTQKSLSLSLGK chain 2: EVQLLESGGGLVQPGGSLRLSCAASGFTFGNYDMAWVRQAPGKRPEWVSSIDTGGDITHYADSVKGRFTISRDNAKNTLYLQMNSLRPEDTAVYWCATDEEYALGPNEFDYYGQGTLVTVSSGGGGSGPPCPPCPAPEFLGGPSVFLFPPKPKDTLMISRTPEVTCVVVDVSQEDPEVQFNWYVDGVEVHNAKTKPREEQFNSTYRVVSVLTVLHQDWLNGKEYKCKVSNKGLPSSIEKTISKAKGQPREPQVCTLPPSQEEMTKNQVSLSCAVKGFYPSDIAVEWESNGQPENNYKTTPPVLDSDGSFFLVSRLTVDKSRWQEGNVFSCSVMHEALHNHYTQKSLSLSLGK | 97 | 0.0087
3 | CIgG4D1A1(G4S)3 (Fc fusion) chain 1: GPPCPPCPAPEFLGGPSVFLFPPKPKDTLMISRTPEVTCVVVDVSQEDPEVQFNWYVDGVEVHNAKTKPREEQFNSTYRVVSVLTVLHQDWLNGKEYKCKVSNKGLPSSIEKTISKAKGQPREPQVYTLPPCQEEMTKNQVSLWCLVKGFYPSDIAVEWESNGQPENNYKTTPPVLDSDGSFFLYSRLTVDKSRWQEGNVFSCSVMHEALHNHYTQKSLSLSLGKGGGGSGGGGSGGGGSDVQLQESGGGLVQAGGSLRLSCAASGLTFSRCDMGWFRQAPGKEREFVARISANGASTHYADFVKGRFTISRDNAKNTVYLQMNYLKPEDTAVYICAAARVPVTWQLYDYWGQGTQVTVS chain 2: GPPCPPCPAPEFLGGPSVFLFPPKPKDTLMISRTPEVTCVVVDVSQEDPEVQFNWYVDGVEVHNAKTKPREEQFNSTYRVVSVLTVLHQDWLNGKEYKCKVSNKGLPSSIEKTISKAKGQPREPQVCTLPPSQEEMTKNQVSLSCAVKGFYPSDIAVEWESNGQPENNYKTTPPVLDSDGSFFLVSRLTVDKSRWQEGNVFSCSVMHEALHNHYTQKSLSLSLGKGGGGSGGGGSGGGGSEVQLLESGGGLVQPGGSLRLSCAASGFTFGNYDMAWVRQAPGKRPEWVSSIDTGGDITHYADSVKGRFTISRDNAKNTLYLQMNSLRPEDTAVYWCATDEEYALGPNEFDYYGQGTLVTVSS | 96 | 0.0646
4 | NIgG4D2A1(RS) (Fc fusion) chain 1: DVQLQESGGGLVEAGGSLRLSCVASGRTFSGWSMGWFRQAPGKEREFVAAISWVGSWIGGTVYSNSVKGRFTISRDNARTTVYLQMNSLKPEDTAVYFCAAANSETPRIFASEYDYWGQGTQVTVSRSGPPCPPCPAPEFLGGPSVFLFPPKPKDTLMISRTPEVTCVVVDVSQEDPEVQFNWYVDGVEVHNAKTKPREEQFNSTYRVVSVLTVLHQDWLNGKEYKCKVSNKGLPSSIEKTISKAKGQPREPQVYTLPPCQEEMTKNQVSLWCLVKGFYPSDIAVEWESNGQPENNYKTTPPVLDSDGSFFLYSRLTVDKSRWQEGNVFSCSVMHEALHNHYTQKSLSLSLGK chain 2: EVQLLESGGGLVQPGGSLRLSCAASGFTFGNYDMAWVRQAPGKRPEWVSSIDTGGDITHYADSVKGRFTISRDNAKNTLYLQMNSLRPEDTAVYWCATDEEYALGPNEFDYYGQGTLVTVSSRSGPPCPPCPAPEFLGGPSVFLFPPKPKDTLMISRTPEVTCVVVDVSQEDPEVQFNWYVDGVEVHNAKTKPREEQFNSTYRVVSVLTVLHQDWLNGKEYKCKVSNKGLPSSIEKTISKAKGQPREPQVCTLPPSQEEMTKNQVSLSCAVKGFYPSDIAVEWESNGQPENNYKTTPPVLDSDGSFFLVSRLTVDKSRWQEGNVFSCSVMHEALHNHYTQKSLSLSLGK | 97 | 0.0123
5 | NIgG4D2A1(G4S)2 (Fc fusion) chain 1: DVQLQESGGGLVEAGGSLRLSCVASGRTFSGWSMGWFRQAPGKEREFVAAISWVGSWIGGTVYSNSVKGRFTISRDNARTTVYLQMNSLKPEDTAVYFCAAANSETPRIFASEYDYWGQGTQVTVSGGGGSGGGGSGPPCPPCPAPEFLGGPSVFLFPPKPKDTLMISRTPEVTCVVVDVSQEDPEVQFNWYVDGVEVHNAKTKPREEQFNSTYRVVSVLTVLHQDWLNGKEYKCKVSNKGLPSSIEKTISKAKGQPREPQVYTLPPCQEEMTKNQVSLWCLVKGFYPSDIAVEWESNGQPENNYKTTPPVLDSDGSFFLYSRLTVDKSRWQEGNVFSCSVMHEALHNHYTQKSLSLSLGK chain 2: EVQLLESGGGLVQPGGSLRLSCAASGFTFGNYDMAWVRQAPGKRPEWVSSIDTGGDITHYADSVKGRFTISRDNAKNTLYLQMNSLRPEDTAVYWCATDEEYALGPNEFDYYGQGTLVTVSSGGGGSGGGGSGPPCPPCPAPEFLGGPSVFLFPPKPKDTLMISRTPEVTCVVVDVSQEDPEVQFNWYVDGVEVHNAKTKPREEQFNSTYRVVSVLTVLHQDWLNGKEYKCKVSNKGLPSSIEKTISKAKGQPREPQVCTLPPSQEEMTKNQVSLSCAVKGFYPSDIAVEWESNGQPENNYKTTPPVLDSDGSFFLVSRLTVDKSRWQEGNVFSCSVMHEALHNHYTQKSLSLSLGK | 96 | 0.0063
6 | NIgG4D2A1(G4S)3 (Fc fusion) chain 1: DVQLQESGGGLVEAGGSLRLSCVASGRTFSGWSMGWFRQAPGKEREFVAAISWVGSWIGGTVYSNSVKGRFTISRDNARTTVYLQMNSLKPEDTAVYFCAAANSETPRIFASEYDYWGQGTQVTVSGGGGSGGGGSGGGGSGPPCPPCPAPEFLGGPSVFLFPPKPKDTLMISRTPEVTCVVVDVSQEDPEVQFNWYVDGVEVHNAKTKPREEQFNSTYRVVSVLTVLHQDWLNGKEYKCKVSNKGLPSSIEKTISKAKGQPREPQVYTLPPCQEEMTKNQVSLWCLVKGFYPSDIAVEWESNGQPENNYKTTPPVLDSDGSFFLYSRLTVDKSRWQEGNVFSCSVMHEALHNHYTQKSLSLSLGK chain 2: EVQLLESGGGLVQPGGSLRLSCAASGFTFGNYDMAWVRQAPGKRPEWVSSIDTGGDITHYADSVKGRFTISRDNAKNTLYLQMNSLRPEDTAVYWCATDEEYALGPNEFDYYGQGTLVTVSSGGGGSGGGGSGGGGSGPPCPPCPAPEFLGGPSVFLFPPKPKDTLMISRTPEVTCVVVDVSQEDPEVQFNWYVDGVEVHNAKTKPREEQFNSTYRVVSVLTVLHQDWLNGKEYKCKVSNKGLPSSIEKTISKAKGQPREPQVCTLPPSQEEMTKNQVSLSCAVKGFYPSDIAVEWESNGQPENNYKTTPPVLDSDGSFFLVSRLTVDKSRWQEGNVFSCSVMHEALHNHYTQKSLSLSLGK | 88 | 0.0037
7 | CIgG4D1A1(G4S)2 (Fc fusion) chain 1: GPPCPPCPAPEFLGGPSVFLFPPKPKDTLMISRTPEVTCVVVDVSQEDPEVQFNWYVDGVEVHNAKTKPREEQFNSTYRVVSVLTVLHQDWLNGKEYKCKVSNKGLPSSIEKTISKAKGQPREPQVYTLPPCQEEMTKNQVSLWCLVKGFYPSDIAVEWESNGQPENNYKTTPPVLDSDGSFFLYSRLTVDKSRWQEGNVFSCSVMHEALHNHYTQKSLSLSLGKGGGGSGGGGSDVQLQESGGGLVQAGGSLRLSCAASGLTFSRCDMGWFRQAPGKEREFVARISANGASTHYADFVKGRFTISRDNAKNTVYLQMNYLKPEDTAVYICAAARVPVTWQLYDYWGQGTQVTVS chain 2: GPPCPPCPAPEFLGGPSVFLFPPKPKDTLMISRTPEVTCVVVDVSQEDPEVQFNWYVDGVEVHNAKTKPREEQFNSTYRVVSVLTVLHQDWLNGKEYKCKVSNKGLPSSIEKTISKAKGQPREPQVCTLPPSQEEMTKNQVSLSCAVKGFYPSDIAVEWESNGQPENNYKTTPPVLDSDGSFFLVSRLTVDKSRWQEGNVFSCSVMHEALHNHYTQKSLSLSLGKGGGGSGGGGSEVQLLESGGGLVQPGGSLRLSCAASGFTFGNYDMAWVRQAPGKRPEWVSSIDTGGDITHYADSVKGRFTISRDNAKNTLYLQMNSLRPEDTAVYWCATDEEYALGPNEFDYYGQGTLVTVSS | 96 | 0.0872
8 | CIgG4D1A1(G4S)1 (Fc fusion) chain 1: GPPCPPCPAPEFLGGPSVFLFPPKPKDTLMISRTPEVTCVVVDVSQEDPEVQFNWYVDGVEVHNAKTKPREEQFNSTYRVVSVLTVLHQDWLNGKEYKCKVSNKGLPSSIEKTISKAKGQPREPQVYTLPPCQEEMTKNQVSLWCLVKGFYPSDIAVEWESNGQPENNYKTTPPVLDSDGSFFLYSRLTVDKSRWQEGNVFSCSVMHEALHNHYTQKSLSLSLGKGGGGSDVQLQESGGGLVQAGGSLRLSCAASGLTFSRCDMGWFRQAPGKEREFVARISANGASTHYADFVKGRFTISRDNAKNTVYLQMNYLKPEDTAVYICAAARVPVTWQLYDYWGQGTQVTVS chain 2: GPPCPPCPAPEFLGGPSVFLFPPKPKDTLMISRTPEVTCVVVDVSQEDPEVQFNWYVDGVEVHNAKTKPREEQFNSTYRVVSVLTVLHQDWLNGKEYKCKVSNKGLPSSIEKTISKAKGQPREPQVCTLPPSQEEMTKNQVSLSCAVKGFYPSDIAVEWESNGQPENNYKTTPPVLDSDGSFFLVSRLTVDKSRWQEGNVFSCSVMHEALHNHYTQKSLSLSLGKGGGGSEVQLLESGGGLVQPGGSLRLSCAASGFTFGNYDMAWVRQAPGKRPEWVSSIDTGGDITHYADSVKGRFTISRDNAKNTLYLQMNSLRPEDTAVYWCATDEEYALGPNEFDYYGQGTLVTVSS | 96 | 0.0658
